# B1: TIMP-3: tissue inhibitor of metalloproteinases 3 (protein, UniProt P35625 24-211, looked up)
# Metalloproteinase inhibitor 3: CTCSPSHPQDAFCNSDIVIRAKVVGKKLVKEGPFGTLVYTIKQMKMYRGFTKMPHVQYIHTEASESLCGLKLEVNKYQYLLTGRVYDGKMYTGLCNFVERWDQLTLSQRKGLNYRYHLGCNCKIKSCYYLPCFVTSKNECLWTDMLSNFGYPGYQSKHYACIRQKGGYCSWYRGWAPPDKSIINATDP
# How the values were obtained:
# ADAM9 = target: T1, ADAM9 (Mus musculus, UniProt Q61072); assay: CD23 shedding in CHO AA8 clone 3 cells with tet-regulated ADAM9 "On" (s-CD23 ELISA); assay type: cell-based, murine; conditions: CHO AA8 clone 3, absence of tetracycline (ADAM9 "On"), 16 hours; 2 μM batimastat or 20 nM-1 μM TIMP; FIG. 3A
# T1 construct: expressed in transfected cells; host or cells: CHO AA8 Tet-Off cells (Clontech), clone 3, co-expressing human CD23b
# T1 sequence (Q61072 206-845 limits assumed): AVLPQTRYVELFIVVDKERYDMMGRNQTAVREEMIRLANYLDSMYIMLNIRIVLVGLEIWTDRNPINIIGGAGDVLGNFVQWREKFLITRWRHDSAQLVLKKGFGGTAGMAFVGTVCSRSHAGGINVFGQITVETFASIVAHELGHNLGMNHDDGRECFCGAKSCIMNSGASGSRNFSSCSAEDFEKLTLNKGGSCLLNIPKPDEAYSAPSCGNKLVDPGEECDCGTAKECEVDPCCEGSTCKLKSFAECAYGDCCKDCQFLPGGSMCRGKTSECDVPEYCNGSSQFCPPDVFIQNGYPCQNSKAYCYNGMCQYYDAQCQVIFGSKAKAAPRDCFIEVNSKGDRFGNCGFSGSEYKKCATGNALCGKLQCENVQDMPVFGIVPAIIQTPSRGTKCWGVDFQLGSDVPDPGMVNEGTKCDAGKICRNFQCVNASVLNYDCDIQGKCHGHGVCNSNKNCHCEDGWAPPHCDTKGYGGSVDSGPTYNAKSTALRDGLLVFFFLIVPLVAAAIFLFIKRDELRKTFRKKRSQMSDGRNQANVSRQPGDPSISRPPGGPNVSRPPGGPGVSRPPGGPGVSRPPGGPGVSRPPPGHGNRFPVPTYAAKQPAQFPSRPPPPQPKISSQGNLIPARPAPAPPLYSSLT
# Procedure: CHO AA8 cells (Clontech), which constitutively express human CD23b and a tet regulatable ADAM9 (clone 3, described above), were cultured in the absence of tetracycline (ADAM9 expression “On”) as well as the presence or absence of the metalloproteinase inhibitor batimastat (BB-94, British Biotechnology) as a broad spectrum MMP inhibitor, as well as various concentrations of either TIMP-1, TIMP-2 or TIMP-3. After 16 hours, aliquots of the respective culture supernatants were analysed by ELISA for the formation of s-CD23 (The Binding Site).
# […] cells were cultured in the presence (ADAM9 expression “Off”) or absence (ADAM9 expression “On”) of tetracylin (Tc). Under both conditions, the influence of batimastat (BB-94) on CD23 shedding was analyzed. The concentration of s-CD23 in the culture supernatants was determined by ELISA. In parallel, the produced s-CD23 cleavage products were analyzed by Western blot analyses (FIG. 4). Untransfected CHO AA8 cells (WT) were used as a negative control in the ELISA assays. In the absence of Tc (ADAM9 expression “On”), about 2-3 times the amount of s-CD23 was produced compared to cells kept in the presence of Tc (ADAM9 expression “Off”). […] The 33 kDa form of s-CD23 and, in minor amounts, the 25 kDa cleavage fragment were detected by Western blot analyses. […]
# ADAM10 = target: T2, ADAM10 (Homo sapiens, UniProt O14672); conditions: stated as known; cited from earlier work
# T2 sequence (O14672 214-748): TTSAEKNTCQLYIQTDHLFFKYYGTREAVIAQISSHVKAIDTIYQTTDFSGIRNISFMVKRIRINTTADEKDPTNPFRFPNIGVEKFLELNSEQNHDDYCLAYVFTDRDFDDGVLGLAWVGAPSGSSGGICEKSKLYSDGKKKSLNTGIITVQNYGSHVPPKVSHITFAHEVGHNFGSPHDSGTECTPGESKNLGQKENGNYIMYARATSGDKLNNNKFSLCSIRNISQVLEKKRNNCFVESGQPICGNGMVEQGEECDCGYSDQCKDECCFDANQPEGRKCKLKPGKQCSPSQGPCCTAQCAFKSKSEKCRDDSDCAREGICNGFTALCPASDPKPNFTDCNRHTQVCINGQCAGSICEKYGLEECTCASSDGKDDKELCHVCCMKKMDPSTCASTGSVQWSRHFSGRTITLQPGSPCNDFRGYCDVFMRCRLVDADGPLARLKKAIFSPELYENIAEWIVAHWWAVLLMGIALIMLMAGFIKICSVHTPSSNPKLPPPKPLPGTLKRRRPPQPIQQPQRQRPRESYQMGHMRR
# ADAM17 (TACE) = ADAM17 (TACE) (Homo sapiens, UniProt P78536); conditions: stated as known; cited from earlier work
# Sequence of ADAM17 (TACE) (P78536 215-824, species assumed): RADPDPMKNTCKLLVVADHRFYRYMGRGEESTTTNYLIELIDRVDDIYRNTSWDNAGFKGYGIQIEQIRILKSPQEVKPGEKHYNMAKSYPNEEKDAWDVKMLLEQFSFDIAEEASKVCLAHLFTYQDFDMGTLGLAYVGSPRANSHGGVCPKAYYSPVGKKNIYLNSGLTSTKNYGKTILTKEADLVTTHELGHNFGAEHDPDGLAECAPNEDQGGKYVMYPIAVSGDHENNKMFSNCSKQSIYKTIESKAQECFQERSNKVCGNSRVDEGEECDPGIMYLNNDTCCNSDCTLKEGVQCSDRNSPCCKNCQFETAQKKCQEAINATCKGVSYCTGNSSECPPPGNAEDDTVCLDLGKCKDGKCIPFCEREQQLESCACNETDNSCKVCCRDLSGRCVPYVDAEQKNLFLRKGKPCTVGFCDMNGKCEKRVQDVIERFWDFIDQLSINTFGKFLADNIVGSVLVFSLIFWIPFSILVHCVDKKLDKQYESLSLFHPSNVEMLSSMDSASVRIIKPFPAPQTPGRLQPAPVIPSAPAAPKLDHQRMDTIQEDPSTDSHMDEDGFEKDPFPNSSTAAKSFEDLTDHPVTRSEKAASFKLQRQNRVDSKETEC
Molecule,block of proteolytic release of CD23 from the membrane (formation of s-CD23 by ELISA) (ADAM9),inhibition of ADAM10 (ADAM10),inhibition of ADAM17 (TACE) (ADAM17 (TACE))
TIMP-1: tissue inhibitor of metalloproteinases 1,could not be inhibited,inhibited,
B1,could not be inhibited,inhibited,inhibited

# Source: US20030091568A1, “Inhibitors for the formation of soluble human CD23” (priority 2000, published 2003)
